The record followed here is paper PMC10786891, “Massively parallel profiling of RNA-targeting CRISPR-Cas13d”.

T1: EsCas13d, nuclease-dead (Eubacterium siraeum, UniProt B0MS50, R295A;H300A;R849A;H854A)
T1 sequence: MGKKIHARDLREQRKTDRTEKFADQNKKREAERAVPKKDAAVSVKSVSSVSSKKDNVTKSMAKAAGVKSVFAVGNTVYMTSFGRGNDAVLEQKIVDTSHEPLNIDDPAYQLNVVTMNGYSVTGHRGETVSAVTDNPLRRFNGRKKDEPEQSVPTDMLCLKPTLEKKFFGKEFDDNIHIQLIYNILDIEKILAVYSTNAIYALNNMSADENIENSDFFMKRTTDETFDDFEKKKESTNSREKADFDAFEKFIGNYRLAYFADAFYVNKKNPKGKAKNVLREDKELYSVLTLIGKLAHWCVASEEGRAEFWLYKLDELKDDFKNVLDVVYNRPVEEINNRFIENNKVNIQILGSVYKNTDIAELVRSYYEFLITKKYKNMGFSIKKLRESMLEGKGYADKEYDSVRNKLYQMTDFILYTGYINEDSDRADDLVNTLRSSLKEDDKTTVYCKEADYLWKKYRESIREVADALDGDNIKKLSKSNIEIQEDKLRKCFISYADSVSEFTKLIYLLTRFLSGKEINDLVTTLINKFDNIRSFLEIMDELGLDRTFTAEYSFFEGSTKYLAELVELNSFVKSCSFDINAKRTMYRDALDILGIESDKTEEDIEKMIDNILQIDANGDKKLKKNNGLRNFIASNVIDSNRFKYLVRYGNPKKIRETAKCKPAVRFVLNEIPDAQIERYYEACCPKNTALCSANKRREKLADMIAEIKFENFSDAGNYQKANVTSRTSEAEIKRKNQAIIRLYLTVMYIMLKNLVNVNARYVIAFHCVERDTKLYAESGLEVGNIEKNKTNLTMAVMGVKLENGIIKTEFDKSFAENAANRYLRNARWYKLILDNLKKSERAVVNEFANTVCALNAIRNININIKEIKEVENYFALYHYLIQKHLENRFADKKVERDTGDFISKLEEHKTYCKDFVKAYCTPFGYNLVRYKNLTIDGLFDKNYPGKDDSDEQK

B1: target 1 MT 5'PFS GUG 3'PFS GUG (mixed)
RNA 1: CACCCGUGCAAAAAUGCAGGGGUCUAAAACUGAGCGGAUAACCUCUCUAUGG
RNA 2: GGGAAUGGAUCCACAUCUACGAAUUCGUGCCAUAGAGAGGUUAUCCGCUCAGUGAGAUCGGAAGAGCACACGU
B2: target 1 MT 5'PFS UAA 3'PFS CGA (mixed)
RNA 1: CACCCGUGCAAAAAUGCAGGGGUCUAAAACUGAGCGGAUAACCUCUCUAUGG
RNA 2: GGGAAUGGAUCCACAUCUACGAAUUCUAACCAUAGAGAGGUUAUCCGCUCACGAAGAUCGGAAGAGCACACGU
B3: target 1 MT 5'PFS AAU 3'PFS ACA (mixed)
RNA 1: CACCCGUGCAAAAAUGCAGGGGUCUAAAACUGAGCGGAUAACCUCUCUAUGG
RNA 2: GGGAAUGGAUCCACAUCUACGAAUUCAAUCCAUAGAGAGGUUAUCCGCUCAACAAGAUCGGAAGAGCACACGU
B4: target 1 MT 5'PFS GCG 3'PFS UAG (mixed)
RNA 1: CACCCGUGCAAAAAUGCAGGGGUCUAAAACUGAGCGGAUAACCUCUCUAUGG
RNA 2: GGGAAUGGAUCCACAUCUACGAAUUCGCGCCAUAGAGAGGUUAUCCGCUCAUAGAGAUCGGAAGAGCACACGU
B5: target 1 MT 5'PFS GUA 3'PFS CUU (mixed)
RNA 1: CACCCGUGCAAAAAUGCAGGGGUCUAAAACUGAGCGGAUAACCUCUCUAUGG
RNA 2: GGGAAUGGAUCCACAUCUACGAAUUCGUACCAUAGAGAGGUUAUCCGCUCACUUAGAUCGGAAGAGCACACGU
B6: target 1 MT 5'PFS GUA 3'PFS CUG (mixed)
RNA 1: CACCCGUGCAAAAAUGCAGGGGUCUAAAACUGAGCGGAUAACCUCUCUAUGG
RNA 2: GGGAAUGGAUCCACAUCUACGAAUUCGUACCAUAGAGAGGUUAUCCGCUCACUGAGAUCGGAAGAGCACACGU
B7: target 1 MT 5'PFS AAU 3'PFS ACG (mixed)
RNA 1: CACCCGUGCAAAAAUGCAGGGGUCUAAAACUGAGCGGAUAACCUCUCUAUGG
RNA 2: GGGAAUGGAUCCACAUCUACGAAUUCAAUCCAUAGAGAGGUUAUCCGCUCAACGAGAUCGGAAGAGCACACGU
B8: target 1 insC 3' of 11,insA 3' of 5 (mixed)
RNA 1: CACCCGUGCAAAAAUGCAGGGGUCUAAAACUGAGCGGAUAACCUCUCUAUGG
RNA 2: GGGAAUGGAUCCACAUCUACGAAUUCGUACCAUAGAGAGGUCUAUCCGACUCACCGAGAUCGGAAGAGCACACGU
B9: target 1 MT 5'PFS GAA 3'PFS AGA (mixed)
RNA 1: CACCCGUGCAAAAAUGCAGGGGUCUAAAACUGAGCGGAUAACCUCUCUAUGG
RNA 2: GGGAAUGGAUCCACAUCUACGAAUUCGAACCAUAGAGAGGUUAUCCGCUCAAGAAGAUCGGAAGAGCACACGU
B10: target 1 MT 5'PFS ACC 3'PFS CCG (mixed)
RNA 1: CACCCGUGCAAAAAUGCAGGGGUCUAAAACUGAGCGGAUAACCUCUCUAUGG
RNA 2: GGGAAUGGAUCCACAUCUACGAAUUCACCCCAUAGAGAGGUUAUCCGCUCACCGAGAUCGGAAGAGCACACGU
B11: target 1 MT 5'PFS UAA 3'PFS CGG (mixed)
RNA 1: CACCCGUGCAAAAAUGCAGGGGUCUAAAACUGAGCGGAUAACCUCUCUAUGG
RNA 2: GGGAAUGGAUCCACAUCUACGAAUUCUAACCAUAGAGAGGUUAUCCGCUCACGGAGAUCGGAAGAGCACACGU
B12: target 1 MT 5'PFS GCG 3'PFS UAA (mixed)
RNA 1: CACCCGUGCAAAAAUGCAGGGGUCUAAAACUGAGCGGAUAACCUCUCUAUGG
RNA 2: GGGAAUGGAUCCACAUCUACGAAUUCGCGCCAUAGAGAGGUUAUCCGCUCAUAAAGAUCGGAAGAGCACACGU
B13: target 1 MT 5'PFS GUA 3'PFS CUC (mixed)
RNA 1: CACCCGUGCAAAAAUGCAGGGGUCUAAAACUGAGCGGAUAACCUCUCUAUGG
RNA 2: GGGAAUGGAUCCACAUCUACGAAUUCGUACCAUAGAGAGGUUAUCCGCUCACUCAGAUCGGAAGAGCACACGU
B14: target 1 MT 5'PFS GGC 3'PFS CGU (mixed)
RNA 1: CACCCGUGCAAAAAUGCAGGGGUCUAAAACUGAGCGGAUAACCUCUCUAUGG
RNA 2: GGGAAUGGAUCCACAUCUACGAAUUCGGCCCAUAGAGAGGUUAUCCGCUCACGUAGAUCGGAAGAGCACACGU
B15: target 1 MT 5'PFS CCG 3'PFS AGA (mixed)
RNA 1: CACCCGUGCAAAAAUGCAGGGGUCUAAAACUGAGCGGAUAACCUCUCUAUGG
RNA 2: GGGAAUGGAUCCACAUCUACGAAUUCCCGCCAUAGAGAGGUUAUCCGCUCAAGAAGAUCGGAAGAGCACACGU
B16: target 1 MT 5'PFS GUG 3'PFS GUC (mixed)
RNA 1: CACCCGUGCAAAAAUGCAGGGGUCUAAAACUGAGCGGAUAACCUCUCUAUGG
RNA 2: GGGAAUGGAUCCACAUCUACGAAUUCGUGCCAUAGAGAGGUUAUCCGCUCAGUCAGAUCGGAAGAGCACACGU
B17: target 1 MT 5'PFS ACG 3'PFS UGA (mixed)
RNA 1: CACCCGUGCAAAAAUGCAGGGGUCUAAAACUGAGCGGAUAACCUCUCUAUGG
RNA 2: GGGAAUGGAUCCACAUCUACGAAUUCACGCCAUAGAGAGGUUAUCCGCUCAUGAAGAUCGGAAGAGCACACGU
B18: target 1 MT 5'PFS ACG 3'PFS UGU (mixed)
RNA 1: CACCCGUGCAAAAAUGCAGGGGUCUAAAACUGAGCGGAUAACCUCUCUAUGG
RNA 2: GGGAAUGGAUCCACAUCUACGAAUUCACGCCAUAGAGAGGUUAUCCGCUCAUGUAGAUCGGAAGAGCACACGU
B19: target 1 MT 5'PFS GAA 3'PFS AGG (mixed)
RNA 1: CACCCGUGCAAAAAUGCAGGGGUCUAAAACUGAGCGGAUAACCUCUCUAUGG
RNA 2: GGGAAUGGAUCCACAUCUACGAAUUCGAACCAUAGAGAGGUUAUCCGCUCAAGGAGAUCGGAAGAGCACACGU
B20: target 1 MT 5'PFS GUA 3'PFS CUA (mixed)
RNA 1: CACCCGUGCAAAAAUGCAGGGGUCUAAAACUGAGCGGAUAACCUCUCUAUGG
RNA 2: GGGAAUGGAUCCACAUCUACGAAUUCGUACCAUAGAGAGGUUAUCCGCUCACUAAGAUCGGAAGAGCACACGU
B21: target 1 insU 3' of 12,insA 3' of 7 (mixed)
RNA 1: CACCCGUGCAAAAAUGCAGGGGUCUAAAACUGAGCGGAUAACCUCUCUAUGG
RNA 2: GGGAAUGGAUCCACAUCUACGAAUUCGUACCAUAGAGAGGUUUAUCACGCUCACCGAGAUCGGAAGAGCACACGU
B22: target 1 MT 5'PFS GCG 3'PFS UAC (mixed)
RNA 1: CACCCGUGCAAAAAUGCAGGGGUCUAAAACUGAGCGGAUAACCUCUCUAUGG
RNA 2: GGGAAUGGAUCCACAUCUACGAAUUCGCGCCAUAGAGAGGUUAUCCGCUCAUACAGAUCGGAAGAGCACACGU
B23: target 1 MT 5'PFS GCG 3'PFS UAU (mixed)
RNA 1: CACCCGUGCAAAAAUGCAGGGGUCUAAAACUGAGCGGAUAACCUCUCUAUGG
RNA 2: GGGAAUGGAUCCACAUCUACGAAUUCGCGCCAUAGAGAGGUUAUCCGCUCAUAUAGAUCGGAAGAGCACACGU

For the series, the target named is T1, EsCas13d, nuclease-dead. The series can be described thus: crRNA (strand 1, pre-loaded); Mg2+; 40 mM Tris-HCl pH 7.5, 150 mM NaCl, 6 mM MgCl2, 1 mM DTT, 0.1% Tween-20, 0.2 mg/ml BSA; 25 C; 10 min per concentration, then washed. Particulars: tags: His6-TwinStrep-SUMO cleaved; N-terminal SNAP kept (SNAP-Surface 488); label: 3' end held by stalled T7 RNA polymerase.
B1: the Kd is 8.9 ± 0.55 nM.
With B2, the Kd is 50 ± 23 nM.
The molecule B3 returned a Kd of around 32 nM.
As for B4, the figure is 17.5 ± 4 nM.
In turn, B5 came in with a Kd of 8.52 ± 0.595 nM.
As for B6, the figure is 7.89 ± 0.47 nM; as for B7, 47 ± 13 nM.
The molecule B8 displayed a Kd of 7.9 ± 0.8 nM.
The molecule B9 came in with a Kd of 62 ± 21.5 nM.
In turn, B10 came in with a Kd of around 18.5 nM.
The molecule B11 yielded a Kd of 55.5 ± 17 nM.
B12: binding was put at a Kd of 10.6 ± 1.6 nM.
In turn, B13 came in with a Kd of 13.8 ± 1.15 nM.
As to B14, the Kd was determined as 10.7 ± 1.75 nM.
In turn, B15 displayed a Kd of 4.45 ± 1.5 nM.
The figure for B16 is 17 ± 2.6 nM; for B17 it is 20.5 ± 7.5 nM.
Turning to B18, the Kd was around 74.5 nM.
As for B19, the affinity, expressed as Kd, was 81 ± 34 nM.
B20 came in with a Kd of 10.2 ± 0.7 nM.
The figure for B21 is 5.36 ± 0.2 nM; for B22 it is 13.2 ± 2.3 nM.
In turn, B23 gave a Kd of 12.2 ± 2.95 nM.

For orientation: Kd means the constant that tells how readily two partners part at equilibrium. Higher therefore signals weaker binding.
